Usually Kd stands for the constant that tells how readily two partners part at equilibrium.

In the assay the target is Recombinant rat SNX27 PDZ domain (residues 38-135) (rat) (UniProt Q8K4V4). In words: ITC. Background: Isothermal titration calorimetry measures the heat released or taken up as one component is titrated into another.
With “GluN2A C-terminal peptide, S1459E phospho-mimetic mutant”, the dissociation constant Kd was determined as 25 µM.
To “Phosphorylated GluN2A C-terminal peptide (phospho-Ser-1459)” belongs 14 µM; to “GluN2A C-terminal peptide, S1459A phospho-deficient mutant”, 49 µM; to GluN2A C-terminal peptide, wild type, 46 µM.

Values taken from PMC8313361.
